In the assay the target is SAMHD1(26-626) (human, UniProt Q9Y3Z3 26-626). Put plainly: SEC.
Sequence of SAMHD1(26-626) (Q9Y3Z3 26-626): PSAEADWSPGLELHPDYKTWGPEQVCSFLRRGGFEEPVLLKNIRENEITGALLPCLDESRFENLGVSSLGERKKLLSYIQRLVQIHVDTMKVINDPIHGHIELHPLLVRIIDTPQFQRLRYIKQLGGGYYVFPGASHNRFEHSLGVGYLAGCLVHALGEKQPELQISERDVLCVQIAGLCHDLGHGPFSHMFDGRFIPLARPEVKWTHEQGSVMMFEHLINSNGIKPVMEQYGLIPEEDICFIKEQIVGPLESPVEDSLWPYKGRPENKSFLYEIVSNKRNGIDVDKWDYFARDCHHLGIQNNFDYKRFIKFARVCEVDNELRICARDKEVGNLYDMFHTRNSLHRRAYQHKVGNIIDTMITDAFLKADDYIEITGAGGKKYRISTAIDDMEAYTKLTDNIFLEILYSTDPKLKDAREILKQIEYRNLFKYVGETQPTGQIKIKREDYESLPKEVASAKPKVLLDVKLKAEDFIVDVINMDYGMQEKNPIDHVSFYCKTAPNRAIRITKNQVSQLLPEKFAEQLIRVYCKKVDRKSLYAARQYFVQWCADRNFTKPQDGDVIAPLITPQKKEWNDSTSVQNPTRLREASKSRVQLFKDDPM

B1: Vpxsm/DCAF1-CtD (complex)
chain 1: MSDPRERIPPGNSGEETIGEAFDWLDRTVEEINRAAVNHLPRELIFQVWRRSWEYWHDEMGMSVSYTKYRYLCLIQKAMFMHCKKGCRCLGGEHGAGGWRPGPPPPPPPGLA
chain 2: not shown
B1: the binding result is “binds”.
